# Patent US20210095041A1 (published 2021)
# Tests used:
# [1] = biological target: Clone #20; experiment: MSD-SET; Fab
# [2] = biological target: Clone #13; experiment: MSD-SET; Fab
# [3] = biological target: Clone #14; experiment: MSD-SET; Fab
# [4] = biological target: Clone #17; experiment: MSD-SET; Fab
# [5] = biological target: Clone #1; experiment: MSD-SET; Fab
# [6] = biological target: Clone #18; experiment: MSD-SET; Fab
# [7] = biological target: Clone #15; experiment: MSD-SET; Fab
# [8] = biological target: Clone #3; experiment: BLI (ForteBio Octet); IgG, monovalent
# [9] = biological target: Clone #5; experiment: BLI (ForteBio Octet); IgG, monovalent
# [10] = biological target: Clone #7; experiment: BLI (ForteBio Octet); IgG, monovalent
# [11] = biological target: Clone #12; experiment: BLI (ForteBio Octet); IgG, monovalent
# [12] = biological target: Clone #11; experiment: BLI (ForteBio Octet); IgG, monovalent
# [13] = biological target: Clone #20; experiment: BLI (ForteBio Octet); IgG, monovalent
# [14] = biological target: Clone #13; experiment: BLI (ForteBio Octet); IgG, monovalent
# [15] = biological target: Clone #10; experiment: BLI (ForteBio Octet); IgG, monovalent
# [16] = biological target: Clone #14; experiment: BLI (ForteBio Octet); IgG, monovalent
# [17] = biological target: Clone #2; experiment: BLI (ForteBio Octet); IgG, monovalent
# [18] = biological target: Clone #17; experiment: BLI (ForteBio Octet); IgG, monovalent
# [19] = biological target: Clone #1; experiment: BLI (ForteBio Octet); IgG, monovalent
# [20] = biological target: Clone #18; experiment: BLI (ForteBio Octet); IgG, monovalent
# [21] = biological target: Clone #9; experiment: BLI (ForteBio Octet); IgG, monovalent
# [22] = biological target: Clone #16; experiment: BLI (ForteBio Octet); IgG, monovalent
# [23] = biological target: Clone #4; experiment: BLI (ForteBio Octet); IgG, monovalent
# [24] = biological target: Clone #15; experiment: BLI (ForteBio Octet); IgG, monovalent
# [25] = biological target: Clone #19; experiment: BLI (ForteBio Octet); IgG, monovalent
# [26] = biological target: Clone #8; experiment: BLI (ForteBio Octet); IgG, monovalent
# [27] = biological target: Clone #6; experiment: BLI (ForteBio Octet); IgG, monovalent
binder,measurement,setting,value
Biotinylated Human CD39-His (enzyme) TQNKALPENVKYGIVLDAGSSHTSLYIYKWPAEKENDTGVVHQVEECRVKGPGISKFVQKVNEIGIYLTDCMERAREVIPRSQHQETPVYLGATAGMRLLRMESEELADRVLDVVERSLSNYPFDFQGARIITGQEEGAYGWITINYLLGKFSQKTRWFSIVPYETNNQETFGALDLGGASTQVTFVPQNQTIESPDNALQFRLYGKDYNVYTHSFLCYGKDQALWQKLAKDIQVASNEILRDPCFHPGYKKVVNVSDLYKTPCTKRFEMTLPFQQFEIQGIGNYQQCHQSILELFNTSYCPYSQCAFNGIFLPPLQGDFGAFSAFYFVMKFLNLTSEKVSQEKVTEMMKKFCAQPWEEIKTSYAGVKEKYLSEYCFSGTYILSLLLQGYHFTADSWEHIHFIGKIQGSDAGWTLGYMLNLTNMIPAEQPLSTPLSHSTYV,Kd,[1],0.61 nM
same,Kd,[2],0.17 nM
same,Kd,[3],0.15 nM
same,Kd,[4],0.099 nM
same,Kd,[5],2.1 nM
same,Kd,[6],0.038 nM
same,Kd,[7],0.38 nM
Human CD39-His (enzyme) TQNKALPENVKYGIVLDAGSSHTSLYIYKWPAEKENDTGVVHQVEECRVKGPGISKFVQKVNEIGIYLTDCMERAREVIPRSQHQETPVYLGATAGMRLLRMESEELADRVLDVVERSLSNYPFDFQGARIITGQEEGAYGWITINYLLGKFSQKTRWFSIVPYETNNQETFGALDLGGASTQVTFVPQNQTIESPDNALQFRLYGKDYNVYTHSFLCYGKDQALWQKLAKDIQVASNEILRDPCFHPGYKKVVNVSDLYKTPCTKRFEMTLPFQQFEIQGIGNYQQCHQSILELFNTSYCPYSQCAFNGIFLPPLQGDFGAFSAFYFVMKFLNLTSEKVSQEKVTEMMKKFCAQPWEEIKTSYAGVKEKYLSEYCFSGTYILSLLLQGYHFTADSWEHIHFIGKIQGSDAGWTLGYMLNLTNMIPAEQPLSTPLSHSTYV,Kd,[8],3.25 nM
same,Kd,[9],29.6 nM
same,Kd,[10],94.3 nM
same,Kd,[11],1.38 nM
same,Kd,[12],14.7 nM
same,Kd,[13],3.89 nM
same,Kd,[14],1.19 nM
same,Kd,[15],37.3 nM
same,Kd,[16],1.25 nM
same,Kd,[17],11.6 nM
same,Kd,[18],1.14 nM
same,Kd,[19],8.04 nM
same,Kd,[20],0.706 nM
same,Kd,[21],124 nM
same,Kd,[22],3.81 nM
same,Kd,[23],3.65 nM
same,Kd,[24],1.97 nM
same,Kd,[25],28.3 nM
same,Kd,[26],28.3 nM
same,Kd,[27],177 nM
